Data on one molecule can be found in patent publication US7442375B2, “Compositions of beta-defensin inducing agents” (Case Western Reserve University, priority 2002, dated 2008).

One test addresses CCR5 (Homo sapiens, UniProt P51681). The test can be described thus: Flow cytometric analysis of co-receptor surface expression on unstimulated PBMC. The format is cell-based. The arrangement: endogenous in cells; host or cells: unstimulated peripheral blood mononuclear cells (PBMC). The note with it: 30 μg/ml, 3 h, high salt medium without FBS. On the procedure:
(§1) Unstimulated PBMC were treated for 3 hrs with hBD-1, -2, or -3 (30 μg/ml) in DMEM (high salt) in the absence of FBS. The CXCR4 natural ligand SDF-1AE (2 μg/ml) and the CCR5 antagonist PSC-RANTES (100 nM) were used as positive controls. CXCR4 and CCR5 surface expression was calculated using known ratios of QuantiBRITE-PE beads (Becton Dickenson) by flow cytometry. Results are the means of seven experiments±SD.
(§2) Unstimulated PBMC were treated with 30 μg/ml hBD-1, -2, or -3 in high salt medium (RPMI-1640) in the absence of FBS, 3 h. The CXCR4 natural ligand SDF-1α (R&D Systems, Minneapolis, Minn., USA) and the CCR5 antagonist PSC-RANTES were used as controls. Cells were incubated with peridinin chlorophyll protein-conjugated anti-human CD4 antibody, and either phycoerythrin (PE)-conjugated anti-human CXCR4 antibody, PE-conjugated anti-human CCR5 antibody, or PE-conjugated mouse immunoglobulin G2a (IgG2a), isotype standard (PharmMingen, San Diego, Calif., USA) [Salkowitz et al.]. Fluorescence intensity was reported as receptor density by quantitative flow cytometry (FACSCaliber; Becton Dickenson, San Jose, Calif., USA) [Iyer et al.]. Data were analyzed using CELLQuest software (Becton Dickenson).
(§3) Surface expression of CXCR4 was decreased by 51%±18% and 52%±20% (SD) respectively after incubation with 30 μg/ml of hBD-2 or hBD-3 (FIG. 5).

The target of the next test is CXCR4 (Homo sapiens, UniProt P61073). The description is as above. The note with it: 30 μg/ml, 3 h, high salt medium without FBS. The arrangement: endogenous in cells; host or cells: unstimulated peripheral blood mononuclear cells (PBMC). Format: cell-based. On the procedure: as §1, §2, §3
CXCR4, sequence (P61073 whole entry): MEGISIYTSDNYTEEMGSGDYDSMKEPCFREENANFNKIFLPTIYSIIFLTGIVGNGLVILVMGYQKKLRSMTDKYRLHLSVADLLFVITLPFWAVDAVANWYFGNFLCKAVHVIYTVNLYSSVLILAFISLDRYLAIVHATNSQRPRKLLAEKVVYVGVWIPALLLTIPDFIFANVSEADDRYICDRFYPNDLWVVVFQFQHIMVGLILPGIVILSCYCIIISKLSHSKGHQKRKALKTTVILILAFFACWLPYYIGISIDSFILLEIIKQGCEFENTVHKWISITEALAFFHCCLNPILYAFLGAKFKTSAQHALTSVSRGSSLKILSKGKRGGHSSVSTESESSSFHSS
In another test the test system is HIV-1 B-HXB2 virions. The test can be described thus: Immunogold transmission electron microscopy. Format: binding. The conditions noted are these: 20 μg/ml, 37° C., 1 h; anti-hBD antibody and 10-nm gold IgG. How it is done: (§4) (a) CXCR4 tropic HXB2 and CCR5 tropic 97ZA003 HIV-1 strains were incubated with 20 μg/ml hBD-1, -2, or -3 in 10 mM PB for 1 h. Virions were pelleted, washed extensively with PBS and used to infect GHOST X4/R5 cells. RT activity was measured 48 h post-infection. The final two columns represent an additional 20 μg/ml of hBD-2 or -3 during infection. (b) Immunoelectron microscopy analysis showing the interaction of hBD-2 and -3 with HIV-1 and with MT4 cell membrane. X4 HIV-1 HXB2 strain and MT4 cells were incubated with hBD-2 or -3 (20 μg/ml), 37° C., 1 h. Polyclonal anti-hBD-2 or -3 antibodies were added, followed by addition of secondary IgG conjugated with 10-nm gold particles. Arrows indicate hBD-2 and -3 localization to virions and cell membrane.
(§5) MT4 cells in RPMI, or X4 strain B-HXB2 viral particles in 10 mM phosphate buffer (PB), were incubated with 20 μg/ml hBD-2 and -3 at 37° C. for 1 h. Cells and virions were centrifuged (15 min, 1200 rpm for cells; 30 min, 35 000 3 g for virus) and washed twice with PBS to remove unbound hBD. Cells and virions were mixed and fixed with 4% paraformaldehyde/0.5% glutaraldehyde, dehydrated, embedded in LR WHITE resin (London Resin Company Ltd, Berkshire, UK), and labeled after embedding as described [Briquet et al.]. […]

Another test concerns MT4 cellular membrane. The test can be described thus: Immunogold transmission electron microscopy. The format is binding, human. The conditions noted are these: 20 μg/ml, 37° C., 1 h; anti-hBD antibody and 10-nm gold IgG. On the procedure:
as §4, §5

In another test the test system is HIV-1 R5-C-97ZA003. The test can be described thus: hBD-virion interaction: virions incubated with hBD, pelleted, washed, used to infect GHOST X4/R5 cells. Format: cell-based. The note with it: 20 μg/ml in 10 mM PB 1 h; RT activity 48 h post-infection. On the procedure:
as §4
(§6) In order to verify a direct hBD-virion interaction, the X4 B-HXB2 and R5-C-97ZA003 HIV-1 strains was incubated with 20 μg/ml of each hBD in 10 mM PB for 1 h, followed by pelleting and extensive washing. Virions were then used to infect GHOST X4/R5 cells. […] To further define these interactions, MT4 cells, infected with the CXCR4 tropic B-HXB2, were incubated with hBD-2 or -3 in RPMI, followed by the addition of anti-hBD-2 or -3 antibodies and goat anti-rabbit IgG conjugated with 10-nm gold particles.

A further test concerns HIV-1 X4 B-HXB2. The test is described as above. Format: cell-based. On the procedure: as §4, §6

CCR5, sequence (P51681 whole entry): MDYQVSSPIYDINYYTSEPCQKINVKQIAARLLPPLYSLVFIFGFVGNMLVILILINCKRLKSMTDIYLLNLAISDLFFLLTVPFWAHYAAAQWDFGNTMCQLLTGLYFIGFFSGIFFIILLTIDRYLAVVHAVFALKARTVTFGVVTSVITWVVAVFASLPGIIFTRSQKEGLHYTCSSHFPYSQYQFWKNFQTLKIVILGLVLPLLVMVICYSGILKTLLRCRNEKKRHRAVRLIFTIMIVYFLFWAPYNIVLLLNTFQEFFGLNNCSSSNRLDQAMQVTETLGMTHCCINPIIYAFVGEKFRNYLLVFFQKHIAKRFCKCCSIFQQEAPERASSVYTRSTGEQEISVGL

B1: hBD-3: Recombinant human β-defensin 3 produced using an hBD-3-His tag fusion construct cloned into pET-30c; exemplary sequence SEQ ID NO:15 (protein, listed as Homo sapiens)
chain: MRIHYLLFALLFLFLVPVPGHGGIINTLQKYYCRVRGGRCAVLSCLPKEEQIGKCSTRGRKCCRRKK
modifications: not fully specified (C-terminus); ends and bridges not checked
For the molecule B1, the “effect on CCR5 expression” value in the test with CCR5 was “not altered”. The “decrease of surface expression of CXCR4 (±SD)” value with CXCR4 is given as 52%±20%. For the same molecule, in the test on HIV-1 B-HXB2 virions, the “gold particles bound to virions” value is “bound both to virions and to the MT4 cellular membrane”. Moreover, the “gold particles bound to MT4 cellular membrane” value with MT4 cellular membrane was “bound both to virions and to the MT4 cellular membrane”. The “anti-HIV-1 effect after pelleting and extensive washing of virions” value in the test with HIV-1 R5-C-97ZA003 is given as “maintained after washing”; in the test on HIV-1 X4 B-HXB2 (20 μg/ml in 10 mM PB 1 h, RT activity 48 h post-infection) it was “maintained after washing”. The “effect of subsequent addition of hBD to the cell-virus mixture” value with HIV-1 X4 B-HXB2 (additional 20 μg/ml during infection, enhancement only against the CXCR4-tropic strain) is recorded as “enhanced anti-HIV-1 activity”.
